Assay results: patent US9476056B2, “Recombinant vector for producing and secreting peptide or protein of interest by propionibacteria and applications thereof” (INSTITUT NATIONAL DE LA SANTE ET DE LA RECHERCHE MEDICALE …, priority 2010, dated 2016)

System: HT29 human colon cancer cells
Assay: Cytotoxicity (viability) test on HT29 cells, methylene blue staining
Assay type: cell-based
Conditions: TRAIL alone, sublethal doses 25, 50 and 100 ng/ml, 24 hours
Description: FIG. 1: Graphs illustrating the synergy observed in vitro between TRAIL and P. freudenreichii metabolites. HT29 colon cancer cells were treated with sublethal doses of TRAIL (25 ng/ml, 50 ng/ml and 100 ng/ml). Various doses of SCFA (propionate/acetate SCFA, FIG. 1A) or of P. freudenreichii supernatant (FIG. 1B) were used in co-treatment. Viability of the HT29 cells was determined after 24 hours of treatment. […] More precisely, the viability illustrated in FIG. 1 was determined using the following cytotoxicity test. HT29 human colon cancer cells (ATCC, Biovalley) were cultured in 96-well plates (30,000 cells/well) for 24 hours. […] At the end of treatment (24 hours), the medium was discarded and the adherent cells were washed three times with 1× PBS (100 μl/well) and fixed in 99% ethanol (100 μl/well) for 30 minutes. After discarding the ethanol, the fixed cells were air dried and then stained for 30 minutes with methylene blue (diluted in 1× borate buffer). After three washings in water and drying (roughly 30 minutes), 100 μl of hydrochloric acid (0.1 N) was added to the wells. The plates were then analyzed by spectrophotometer at a wavelength of 620 nm (iEMS Reader MF; Lab-systems, Helsinki, Finland).

B1: TRAIL: cytokine TNF-related apoptosis-inducing ligand; SuperKillerTRAIL™ (Alexis Biochemicals) used in the HT29 test (protein)
chain: TSEETISTVQEKQQNISPLVRERGPQRVAAHITGTRGRSNTLSSPNSKNEKALGRKINSWESSRSGHSFLSNLHLRNGELVIHEKGFYYIYSQTYFRFQEEIKENTKNDKQMVQYIYKYTSYPDPILLMKSARNSCWSKDAEYGLYSIYQGGIFELKENDRIFVSVTNEHLIDMDHEASFFGAFLVG
B1 was tested, and the “cell death (viability of HT29 cells)” value was “do not significantly induce cell death”.
